Data on one substance can be found in article doi:10.1101/2025.11.05.686826.

The assay concerns the target Prometheoarchaeum syntrophicum rubisco (Prometheoarchaeum syntrophicum). In words: SEC-SAXS.

As for “Prometheoarchaeum syntrophicum rubisco (enzyme)”, the stoichiometry N was found to be 2.
